Data: patent publication US20250340608A1 (PROTAGONIST THERAPEUTICS, published 2025)
Numbered stars: 1 amine (or outer) side, 2 acyl side, 3 side chain; on linkers, the order of the positions; unused ones are H or OH. Square brackets hold non-standard residues; d marks the D form. Primed or numbered codes have the meaning given here. Ends that are not written are not given here. * marks the point of attachment. Ida = iminodiacetic acid, O=C(CN(CC(=O)[*:3])[*:1])[*:2]; PEG8″ = PEG8 spacer conjugated to the Lys side chain; PEG8′ = PEG8 conjugated to the Lys side chain; Cyclohexanecarbonyl = O=C(C1CCCCC1)*; Palmitoyl = CCCCCCCCCCCCCCCC(=O)*; Me3Gly = C[N+](C)(C)CC(=O)*; Isovaleryl = CC(C)CC(=O)*; PEG11′ = not defined here; Isobutyryl = CC(C)C(=O)*; PEG2′ = not defined here; PEG3′ = not defined here; PEG4′ = not defined here

T1: human ferroportin (SLC40A1) fused in frame with GFP, stably expressed in HEK293 cells (human, UniProt Q9NP59 1-571)
T1 sequence (looked up): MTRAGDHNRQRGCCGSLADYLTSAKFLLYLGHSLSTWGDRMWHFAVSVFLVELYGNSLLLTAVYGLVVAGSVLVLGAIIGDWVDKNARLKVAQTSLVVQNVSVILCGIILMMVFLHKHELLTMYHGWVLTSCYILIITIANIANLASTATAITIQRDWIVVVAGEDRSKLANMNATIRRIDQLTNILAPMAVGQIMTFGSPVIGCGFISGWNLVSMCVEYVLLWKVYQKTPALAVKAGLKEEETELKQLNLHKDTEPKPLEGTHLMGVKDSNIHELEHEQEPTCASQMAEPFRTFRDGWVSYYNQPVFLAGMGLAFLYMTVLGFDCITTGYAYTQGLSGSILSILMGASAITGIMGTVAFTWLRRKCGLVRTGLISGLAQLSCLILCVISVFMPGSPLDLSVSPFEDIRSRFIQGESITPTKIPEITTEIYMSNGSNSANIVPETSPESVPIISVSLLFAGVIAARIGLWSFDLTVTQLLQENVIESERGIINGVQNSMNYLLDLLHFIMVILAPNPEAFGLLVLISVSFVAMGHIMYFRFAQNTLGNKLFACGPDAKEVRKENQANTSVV


molecular target: T1, human ferroportin (SLC40A1) fused in …; experiment: cell-based or functional assay

Binder | Potency EC50 (nM) | Potency EC50 [nM]
{Isobutyryl-PEG11′}-DTHFPCIIFGPRSRGWVCK-NH2 (not fully specified (bridges); cysteine pairing not given here) [Compound 109] | > 1000 | 
Isovaleryl-DTHFPCIIFGPRSKGWECK-NH2 (not fully specified (bridges); cysteine pairing not given here) [Compound 172] |  | 15
Isovaleryl-HFPCIIFGPRSKGWVCM-NH2 (cysteine pairing not given here) [Compound 134] | > 1000 | 
Isovaleryl-DTHFPICIFGPRSK(PEG8″)GWVC-NH2 (not fully specified (bridges); cysteine pairing not given here) [Compound 176] |  | 6
Isovaleryl-DTHFPCIIFGPRSKGVC-NH2 (not fully specified (bridges); cysteine pairing not given here) [Compound 114] |  | 18
{Octanoic acid-PEG11′}-DTHFPCIIFGPRSRGWVCK-NH2 (not fully specified (bridges); cysteine pairing not given here) [Compound 108] | > 1000 | 
{Isovaleryl-PEG3′}-DTHFPCIKFGPRSKGWVCK-NH2 (cysteine pairing not given here) [Compound 161] |  | 666
[Ida]THFPCIIFGPRSRGWVCK-NH2 (not fully specified (bridges); printed as [Ida]-THFPCIIFGPRSRGWVCK-NH2; cysteine pairing not given here) [Compound 110] |  | > 300
Isovaleryl-DTHFPCIIFEPRSKGWVCK-NH2 (not fully specified (bridges); cysteine pairing not given here) [Compound 105] |  | 10
Isovaleryl-DTHFPCIIFGPRSKGWCK-NH2 (not fully specified (bridges); cysteine pairing not given here) [Compound 113] |  | 15
Isovaleryl-DTHFPCIIFGPRSRGWVCK(PEG8″)-NH2 (not fully specified (bridges); cysteine pairing not given here) [Compound 178] |  | 3
Isovaleryl-DTHFPICIFGPRSK(PEG4′)GWVC-NH2 (not fully specified (bridges); cysteine pairing not given here) [Compound 177] |  | 6
Isovaleryl-DTHFPCIK(PEG8′)FGPRSKGWVCK-NH2 (cysteine pairing not given here) [Compound 149] |  | 9
H-DTHFPCIKFGPRSKGWVCM-NH2 (cysteine pairing not given here) [Compound 136] |  | 669
Isovaleryl-DTHFKCIEFGPRSKGWVCK-NH2 (cysteine pairing not given here) [Compound 140] | > 1000 | 
H-VDTHFPCIKFGPRSKGWVCK-NH2 (cysteine pairing not given here) [Compound 164] |  | 146
Isovaleryl-DTHFPCIKFGPKSKGWVCK-NH2 (not fully specified (bridges); cysteine pairing not given here) [Compound 112] |  | 15
Isovaleryl-DTHFPCIIFGPRSRGWVCK(PEG4′)-NH2 (not fully specified (bridges); cysteine pairing not given here) [Compound 179] |  | 4
Isovaleryl-DTHFPCIIFEPRSKGWVCKKKK-NH2 (cysteine pairing not given here) [Compound 144] |  | 15

Now from value to binder:

Potency EC50 (nM) | Potency EC50 [nM] | Binder
 | 17 | Isovaleryl-DTHFPCIKFEPRSKGWCK-NH2 (not fully specified (bridges); cysteine pairing not given here) [Compound 183]
 | 30 | Isovaleryl-DTHFPCIKFGPRSCK-NH2 (cysteine pairing not given here) [Compound 188]
 | 50 | Isovaleryl-DTHFSCIIFGPRSKGWVCK-NH2 (not fully specified (bridges); cysteine pairing not given here) [Compound 107]
 | 9 | Isovaleryl-DTHFPCIIFEPRSKGWVCK-NH2 (cysteine pairing not given here) [Compound 142]
> 1000 |  | H-THFPCIIFGPRSKGWVCM-NH2 (cysteine pairing not given here) [Compound 132]
 | 15 | Isovaleryl-DTHFPCIKFEPRSKGWVCK-NH2 (not fully specified (bridges); cysteine pairing not given here) [Compound 181]
 | 9 | Isovaleryl-DTHFPCIIFGPRSKGWVCKK-NH2 (cysteine pairing not given here) [Compound 145]
 | 18 | Isovaleryl-DTHFPCIKFGPRSKGWTCK-NH2 (cysteine pairing not given here) [Compound 154]
 | 30 | Cyclohexanecarbonyl-DTHFPCIKFGPRSKGWVCK-NH2 (not fully specified (bridges); cysteine pairing not given here) [Compound 168]
 | 873 | H-EDTHFPCIIFGPRSKGWVCM-NH2 (cysteine pairing not given here) [Compound 137]
 | 4 | Isovaleryl-DTHFPCIK(Palmitoyl)FGPRSKGWVCK-NH2 (cysteine pairing not given here) [Compound 194]
 | 17 | Isovaleryl-DTHFPCIKFGPRSKGWVCK(Me3Gly)-NH2 (cysteine pairing not given here) [Compound 159]
 | 20 | Isovaleryl-DTKFPCIIFGPRSKGWVCK-NH2 (cysteine pairing not given here) [Compound 147]
 | 545 | H-DTHFPCISFGPRSKGWVCM-NH2 (cysteine pairing not given here) [Compound 135]
 | 80 | Isovaleryl-DTHFPCIKFC-NH2 (cysteine pairing not given here) [Compound 193]
 | 9 | Isovaleryl-DTHFPCIIFGPRSRGWVCK(PEG2′)-NH2 (not fully specified (bridges); cysteine pairing not given here) [Compound 180]
 | 7 | DTHFPCIKFKPRSKGWVCK (N-terminal isovaleric acid; PEG8 on side chain of Lys 10; C-terminal amide) [Compound 150]
> 1000 |  | H-HFPCIIFGPRSKGWVCM-NH2 (cysteine pairing not given here) [Compound 133]
 | 18 | Isovaleryl-DTHFPCIKFGPRSKGWVCK(PEG8′)-NH2 (cysteine pairing not given here) [Compound 153]
 | 18 | Isovaleryl-DTHFPCIKFGPRSK(Me3Gly)GWVCK-NH2 (cysteine pairing not given here) [Compound 157]
